This note sets out measurements from US9937235B2, “Lipidated peptides as anti-obesity agents” (USTAV ORGANICKE CHEMIE A BIOCHEMIE AKADEMIE VED CR, V.V.I, priority 2012, dated 2018).

Where no end group is shown, it is not given here. [ ]: non-standard residue; d: D form. The star is where a group is joined. 1Nal = N[C@@H](Cc1cccc2ccccc12)C(=O)O; Palmitoyl = CCCCCCCCCCCCCCCC(=O)*; Myristoyl = CCCCCCCCCCCCCC(=O)*; Nle = CCCC[C@H](N)C(=O)O; Octanoyl = CCCCCCCC(=O)*; Dap = NC[C@H](N)C(=O)O

In experiment [1] the target is T1, rat PrRP receptor in RC-4B/C cells (rat, UniProt Q64121 1-370).
T1 construct: whole, on cells; also called the rat receptor; GPR10
T1 sequence (looked up): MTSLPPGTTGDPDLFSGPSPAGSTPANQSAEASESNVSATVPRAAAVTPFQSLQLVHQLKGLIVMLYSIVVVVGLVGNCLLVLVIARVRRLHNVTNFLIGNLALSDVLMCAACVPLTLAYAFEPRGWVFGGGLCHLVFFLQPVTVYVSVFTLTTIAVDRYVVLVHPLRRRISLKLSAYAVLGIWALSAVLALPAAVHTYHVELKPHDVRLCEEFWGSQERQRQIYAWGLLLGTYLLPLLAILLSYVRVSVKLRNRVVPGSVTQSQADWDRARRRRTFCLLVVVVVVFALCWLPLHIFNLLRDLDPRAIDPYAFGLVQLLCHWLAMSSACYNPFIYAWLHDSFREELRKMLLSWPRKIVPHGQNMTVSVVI
The experiment can be described thus: competition with 125I-rat PrRP31 on RC-4B/C cells; Ki by Cheng-Prusoff. The procedure: (§1) The rat pituitary cell line RC-4B/C (ATCC, Manassas, USA) was grown on 24-well plates which had their bottom coated with polyethyleneimine. The cells were grown to the optimal density of 300-450 thousand per well.
(§2) Plates were incubated for 60 minutes at room temperature. After incubation, the cells were solubilized in 0.1 mol/l solution of NaOH and the radioactivity bound to the cells was counted using a γ-counter. The experiments were performed in duplicate and repeated at least three times.
For evaluation of competitive binding experiments, the program Graph Pad Prism Software (San Diego, Calif., USA) was used. A method of nonlinear regression assuming one-site binding was used.

In experiment [2] the target is T1, rat PrRP receptor in RC-4B/C cells. As to the kind of experiment: competition with 125I-rat PrRP31 on RC-4B/C cells. The method, then:
as §1, §2

B1: analog no. 6 (peptide)
peptide: [Dap](Palmitoyl)RAHQHS[Nle]ETRTPDINPAWYTGRGIRPVGRF-NH2
modifications: N-terminus assumed
SMILES: CCCCCCCCCCCCCCCC(=O)NC[C@H](N)C(=O)N[C@@H](CCCNC(=N)N)C(=O)N[C@@H](C)C(=O)N[C@@H](Cc1c[nH]cn1)C(=O)N[C@@H](CCC(N)=O)C(=O)N[C@@H](Cc1c[nH]cn1)C(=O)N[C@@H](CO)C(=O)N[C@@H](CCCC)C(=O)N[C@@H](CCC(=O)O)C(=O)N[C@H](C(=O)N[C@@H](CCCNC(=N)N)C(=O)N[C@H](C(=O)N1CCC[C@H]1C(=O)N[C@@H](CC(=O)O)C(=O)N[C@H](C(=O)N[C@@H](CC(N)=O)C(=O)N1CCC[C@H]1C(=O)N[C@@H](C)C(=O)N[C@@H](Cc1c[nH]c2ccccc12)C(=O)N[C@@H](Cc1ccc(O)cc1)C(=O)N[C@H](C(=O)NCC(=O)N[C@@H](CCCNC(=N)N)C(=O)NCC(=O)N[C@H](C(=O)N[C@@H](CCCNC(=N)N)C(=O)N1CCC[C@H]1C(=O)N[C@H](C(=O)NCC(=O)N[C@@H](CCCNC(=N)N)C(=O)N[C@@H](Cc1ccccc1)C(N)=O)C(C)C)[C@@H](C)CC)[C@@H](C)O)[C@@H](C)CC)[C@@H](C)O)[C@@H](C)O
notes: analog of rat PrRP31; also called [Dpr(palm)^1]PrRP31
Consider B1, for which the affinity in experiment [1] corresponds to a Ki of 0.46 nM. For the same molecule, the “% of PrRP31 binding” value in experiment [2] turned out to be 1070%.

B2: analog no. 1 (peptide)
peptide: [Dap]RAHQHS[Nle]ETRTPDINPAWYTGRGIRPVGRF-NH2
modifications: N-terminus assumed
SMILES: CCCC[C@H](NC(=O)[C@H](CO)NC(=O)[C@H](Cc1c[nH]cn1)NC(=O)[C@H](CCC(N)=O)NC(=O)[C@H](Cc1c[nH]cn1)NC(=O)[C@H](C)NC(=O)[C@H](CCCNC(=N)N)NC(=O)[C@@H](N)CN)C(=O)N[C@@H](CCC(=O)O)C(=O)N[C@H](C(=O)N[C@@H](CCCNC(=N)N)C(=O)N[C@H](C(=O)N1CCC[C@H]1C(=O)N[C@@H](CC(=O)O)C(=O)N[C@H](C(=O)N[C@@H](CC(N)=O)C(=O)N1CCC[C@H]1C(=O)N[C@@H](C)C(=O)N[C@@H](Cc1c[nH]c2ccccc12)C(=O)N[C@@H](Cc1ccc(O)cc1)C(=O)N[C@H](C(=O)NCC(=O)N[C@@H](CCCNC(=N)N)C(=O)NCC(=O)N[C@H](C(=O)N[C@@H](CCCNC(=N)N)C(=O)N1CCC[C@H]1C(=O)N[C@H](C(=O)NCC(=O)N[C@@H](CCCNC(=N)N)C(=O)N[C@@H](Cc1ccccc1)C(N)=O)C(C)C)[C@@H](C)CC)[C@@H](C)O)[C@@H](C)CC)[C@@H](C)O)[C@@H](C)O
notes: analog of rat PrRP31; also called [Dpr^1]PrRP31
For B2, in experiment [1], the inhibitory constant (Ki) – broadly, the equilibrium dissociation constant of an inhibitor or competing ligand from its target – was 3.74 nM. For the same molecule, the “% of PrRP31 binding” value in experiment [2] stood at 132%.

B3: analog no. 7 (peptide)
peptide: [Dap]RAHQHS[Nle]ETRTPDINPAWYTGRGIRPVGR[1Nal]-NH2
modifications: N-terminus assumed
SMILES: CCCC[C@H](NC(=O)[C@H](CO)NC(=O)[C@H](Cc1c[nH]cn1)NC(=O)[C@H](CCC(N)=O)NC(=O)[C@H](Cc1c[nH]cn1)NC(=O)[C@H](C)NC(=O)[C@H](CCCNC(=N)N)NC(=O)[C@@H](N)CN)C(=O)N[C@@H](CCC(=O)O)C(=O)N[C@H](C(=O)N[C@@H](CCCNC(=N)N)C(=O)N[C@H](C(=O)N1CCC[C@H]1C(=O)N[C@@H](CC(=O)O)C(=O)N[C@H](C(=O)N[C@@H](CC(N)=O)C(=O)N1CCC[C@H]1C(=O)N[C@@H](C)C(=O)N[C@@H](Cc1c[nH]c2ccccc12)C(=O)N[C@@H](Cc1ccc(O)cc1)C(=O)N[C@H](C(=O)NCC(=O)N[C@@H](CCCNC(=N)N)C(=O)NCC(=O)N[C@H](C(=O)N[C@@H](CCCNC(=N)N)C(=O)N1CCC[C@H]1C(=O)N[C@H](C(=O)NCC(=O)N[C@@H](CCCNC(=N)N)C(=O)N[C@@H](Cc1cccc2ccccc12)C(N)=O)C(C)C)[C@@H](C)CC)[C@@H](C)O)[C@@H](C)CC)[C@@H](C)O)[C@@H](C)O
notes: analog of rat PrRP31
The molecule B3 showed a Ki in experiment [1] of 60.1 nM. Besides, the “% of PrRP31 binding” value in experiment [2] is 8%.

B4: analog no. 8 (peptide)
peptide: [Dap](Octanoyl)RAHQHS[Nle]ETRTPDINPAWYTGRGIRPVGR[1Nal]-NH2
modifications: N-terminus assumed
SMILES: CCCCCCCC(=O)NC[C@H](N)C(=O)N[C@@H](CCCNC(=N)N)C(=O)N[C@@H](C)C(=O)N[C@@H](Cc1c[nH]cn1)C(=O)N[C@@H](CCC(N)=O)C(=O)N[C@@H](Cc1c[nH]cn1)C(=O)N[C@@H](CO)C(=O)N[C@@H](CCCC)C(=O)N[C@@H](CCC(=O)O)C(=O)N[C@H](C(=O)N[C@@H](CCCNC(=N)N)C(=O)N[C@H](C(=O)N1CCC[C@H]1C(=O)N[C@@H](CC(=O)O)C(=O)N[C@H](C(=O)N[C@@H](CC(N)=O)C(=O)N1CCC[C@H]1C(=O)N[C@@H](C)C(=O)N[C@@H](Cc1c[nH]c2ccccc12)C(=O)N[C@@H](Cc1ccc(O)cc1)C(=O)N[C@H](C(=O)NCC(=O)N[C@@H](CCCNC(=N)N)C(=O)NCC(=O)N[C@H](C(=O)N[C@@H](CCCNC(=N)N)C(=O)N1CCC[C@H]1C(=O)N[C@H](C(=O)NCC(=O)N[C@@H](CCCNC(=N)N)C(=O)N[C@@H](Cc1cccc2ccccc12)C(N)=O)C(C)C)[C@@H](C)CC)[C@@H](C)O)[C@@H](C)CC)[C@@H](C)O)[C@@H](C)O
notes: analog of rat PrRP31
Molecule B4 yielded an inhibitory constant (Ki) in experiment [1] of 39.2 nM. The “% of PrRP31 binding” value in experiment [2] amounted to 13%.

B5: analog no. 9 (peptide)
peptide: [Dap](Myristoyl)RAHQHS[Nle]ETRTPDINPAWYTGRGIRPVGR[1Nal]-NH2
modifications: N-terminus assumed
SMILES: CCCCCCCCCCCCCC(=O)NC[C@H](N)C(=O)N[C@@H](CCCNC(=N)N)C(=O)N[C@@H](C)C(=O)N[C@@H](Cc1c[nH]cn1)C(=O)N[C@@H](CCC(N)=O)C(=O)N[C@@H](Cc1c[nH]cn1)C(=O)N[C@@H](CO)C(=O)N[C@@H](CCCC)C(=O)N[C@@H](CCC(=O)O)C(=O)N[C@H](C(=O)N[C@@H](CCCNC(=N)N)C(=O)N[C@H](C(=O)N1CCC[C@H]1C(=O)N[C@@H](CC(=O)O)C(=O)N[C@H](C(=O)N[C@@H](CC(N)=O)C(=O)N1CCC[C@H]1C(=O)N[C@@H](C)C(=O)N[C@@H](Cc1c[nH]c2ccccc12)C(=O)N[C@@H](Cc1ccc(O)cc1)C(=O)N[C@H](C(=O)NCC(=O)N[C@@H](CCCNC(=N)N)C(=O)NCC(=O)N[C@H](C(=O)N[C@@H](CCCNC(=N)N)C(=O)N1CCC[C@H]1C(=O)N[C@H](C(=O)NCC(=O)N[C@@H](CCCNC(=N)N)C(=O)N[C@@H](Cc1cccc2ccccc12)C(N)=O)C(C)C)[C@@H](C)CC)[C@@H](C)O)[C@@H](C)CC)[C@@H](C)O)[C@@H](C)O
notes: analog of rat PrRP31; also called myristoylated analog [Dpr^1 Nal^31]PrRP31 (No. 9)
In turn, B5 displayed an inhibition constant (Ki) in experiment [1] of 2.95 nM. Further, the “% of PrRP31 binding” value in experiment [2] is 167%.
The molecule SRAHQHSMETRTPDINPAWYTGRGIRPVGRF-NH2 (also called prolactin-releasing peptide) [Rat PrRP31] displayed a Ki in experiment [1] of 4.93 nM. In addition, the “% of PrRP31 binding” value in experiment [2] amounted to 100%.

B6: analog no. 5 (peptide)
peptide: [Dap](Myristoyl)RAHQHS[Nle]ETRTPDINPAWYTGRGIRPVGRF-NH2
modifications: N-terminus assumed
SMILES: CCCCCCCCCCCCCC(=O)NC[C@H](N)C(=O)N[C@@H](CCCNC(=N)N)C(=O)N[C@@H](C)C(=O)N[C@@H](Cc1c[nH]cn1)C(=O)N[C@@H](CCC(N)=O)C(=O)N[C@@H](Cc1c[nH]cn1)C(=O)N[C@@H](CO)C(=O)N[C@@H](CCCC)C(=O)N[C@@H](CCC(=O)O)C(=O)N[C@H](C(=O)N[C@@H](CCCNC(=N)N)C(=O)N[C@H](C(=O)N1CCC[C@H]1C(=O)N[C@@H](CC(=O)O)C(=O)N[C@H](C(=O)N[C@@H](CC(N)=O)C(=O)N1CCC[C@H]1C(=O)N[C@@H](C)C(=O)N[C@@H](Cc1c[nH]c2ccccc12)C(=O)N[C@@H](Cc1ccc(O)cc1)C(=O)N[C@H](C(=O)NCC(=O)N[C@@H](CCCNC(=N)N)C(=O)NCC(=O)N[C@H](C(=O)N[C@@H](CCCNC(=N)N)C(=O)N1CCC[C@H]1C(=O)N[C@H](C(=O)NCC(=O)N[C@@H](CCCNC(=N)N)C(=O)N[C@@H](Cc1ccccc1)C(N)=O)C(C)C)[C@@H](C)CC)[C@@H](C)O)[C@@H](C)CC)[C@@H](C)O)[C@@H](C)O
notes: analog of rat PrRP31; also called [Dpr(myr)^1]PrRP31; myristoylated analog [Dpr^1]PrRP31 (No. 5)
Molecule B6 showed a Ki in experiment [1] of 0.82 nM. Also, the “% of PrRP31 binding” value in experiment [2] was 601%.

B7: analog no. 2 (peptide)
peptide: [Dap](Octanoyl)RAHQHS[Nle]ETRTPDINPAWYTGRGIRPVGRF-NH2
modifications: N-terminus assumed
SMILES: CCCCCCCC(=O)NC[C@H](N)C(=O)N[C@@H](CCCNC(=N)N)C(=O)N[C@@H](C)C(=O)N[C@@H](Cc1c[nH]cn1)C(=O)N[C@@H](CCC(N)=O)C(=O)N[C@@H](Cc1c[nH]cn1)C(=O)N[C@@H](CO)C(=O)N[C@@H](CCCC)C(=O)N[C@@H](CCC(=O)O)C(=O)N[C@H](C(=O)N[C@@H](CCCNC(=N)N)C(=O)N[C@H](C(=O)N1CCC[C@H]1C(=O)N[C@@H](CC(=O)O)C(=O)N[C@H](C(=O)N[C@@H](CC(N)=O)C(=O)N1CCC[C@H]1C(=O)N[C@@H](C)C(=O)N[C@@H](Cc1c[nH]c2ccccc12)C(=O)N[C@@H](Cc1ccc(O)cc1)C(=O)N[C@H](C(=O)NCC(=O)N[C@@H](CCCNC(=N)N)C(=O)NCC(=O)N[C@H](C(=O)N[C@@H](CCCNC(=N)N)C(=O)N1CCC[C@H]1C(=O)N[C@H](C(=O)NCC(=O)N[C@@H](CCCNC(=N)N)C(=O)N[C@@H](Cc1ccccc1)C(N)=O)C(C)C)[C@@H](C)CC)[C@@H](C)O)[C@@H](C)CC)[C@@H](C)O)[C@@H](C)O
notes: analog of rat PrRP31; also called [Dpr(oct)^1]PrRP31
The molecule B7 displayed an inhibitory constant (Ki) in experiment [1] of 2.86 nM. Besides, the “% of PrRP31 binding” value in experiment [2] was determined as 172%.
